Among the data in article PMC2920065 are increase of the fraction bound against wild-type Gβ5, fold reduction of binding against wild-type Gβ5 and percent bound values, retold here.

The target in assay [1] is GST fusion of the wild type DEP domain of RGS7 (R7-DEP) (bovine) (UniProt O46470). Nature of the assay: pull-down.
The target of assay [2] is GST-DEP F107A/F110A double mutant (bovine) (UniProt O46470). In words: pull-down.

A value given as a limit tells only on which side of the number the result lay.

“Gβ5 D259A mutant in complex with the RGS7^249-469 construct (from UniProt O46470 249-469)”: the increase of the fraction bound against wild-type Gβ5 in assay [1] was found to be 10%.
“Gβ5 F284A mutant in complex with the RGS7^249-469 construct (from UniProt O46470 249-469)” gave a fold reduction of binding against wild-type Gβ5 in assay [1] of 5 fold.
Still for that read-out and setting: then “Gβ5 I282A/I283A double mutant in complex with the RGS7^249-469 construct (from UniProt O46470 249-469)”, with 5 fold.
With “complex of wild-type Gβ5 with the RGS7^249-469 construct (from UniProt O46470 249-469)”, the percent bound was 12% in assay [2] and above 50% in assay [1].
